Test results taken from patent US20190276531A1.
pEC50, pKd: −log10 of the molar value. Blank lines part the entries; values can stand above or below the substance they belong to.

Assays:
[1] = target: R-PE-labeled human TIM-3-Fc chimera protein (R&D Systems) (human) (UniProt Q8TDQ0); test: flow cytometry competition; R-PE TIM-3-Fc preincubated with 3.125 µg/ml antibody, then apoptotic Jurkat cells showing phosphatidylserine
[2] = target: R-PE-labeled human TIM-3-Fc chimera protein (R&D Systems) (human) (UniProt Q8TDQ0); test: flow cytometry competition: R-PE-labelled TIM-3-Fc pre-mixed with titrated antibody, then binding to phosphatidylserine-positive apoptotic Jurkat cells; blocked ligand: phosphatidylserine [continued) C]
[3] = target: R-PE-labeled human TIM-3-Fc chimera protein (R&D Systems) (human) (UniProt Q8TDQ0); test: flow cytometry competition: R-PE-labelled TIM-3-Fc pre-mixed with titrated antibody, then binding to phosphatidylserine-positive apoptotic Jurkat cells (MFI); blocked ligand: phosphatidylserine; unit taken from the axis log(Concentration) µg/ml [continued) C]
[4] = target: cynomolgus TIM-3 Fc fusion antigen (Sino Biologicals) (cynomolgus monkey (Macaca fascicularis)); test: ELISA; EC50 on cynomolgus TIM-3 over EC50 on human TIM-3
[5] = target: cynomolgus TIM-3 Fc fusion antigen (Sino Biologicals) (cynomolgus monkey (Macaca fascicularis)); test: ELISA; TIM-3 Fc fusion coated at 1 µg/ml, antibody titrated 2-fold from 1000 nM, HRP secondary
[6] = target: human TIM-3 Fc fusion antigen (Sino Biologicals) (human) (UniProt Q8TDQ0); test: as above
[7] = target: cynomolgus TIM-3 ECD fused C-terminally to human IgG1 Fc (made in-house, ExpiCHO) (cynomolgus monkey (Macaca fascicularis); human); test: SPR (IBIS MX96); TIM-3 ECD-Fc captured on anti-human IgG Fc sensor, Fab injected 1-100 nM; 1:1 Langmuir fit
Chain of cynomolgus TIM-3 ECD fused C-terminally to human IgG1 Fc (made in-house, ExpiCHO) (cynomolgus monkey (Macaca fascicularis); human) (chain, as listed by the source limits assumed): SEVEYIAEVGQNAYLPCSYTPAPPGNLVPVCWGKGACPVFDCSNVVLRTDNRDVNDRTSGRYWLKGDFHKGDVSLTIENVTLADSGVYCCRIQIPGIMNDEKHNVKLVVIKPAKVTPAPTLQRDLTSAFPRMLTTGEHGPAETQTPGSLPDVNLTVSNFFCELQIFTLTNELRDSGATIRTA

[8] = target: human TIM-3 ECD fused C-terminally to human IgG1 Fc (made in-house, ExpiCHO) (human) (UniProt Q8TDQ0); test: as above

- TIM-3-Fc binding to PtdS-positive cells left, % of the binding with non-blocking antibody 15338.15338 [1]: 3.2%
- TIM-3 binding (MFI) at 0.003 µg/ml antibody [2]: 8700 MFI
- TIM-3 binding (MFI) at 0.012 µg/ml antibody [2]: 8730 MFI
- TIM-3 binding (MFI) at 0.049 µg/ml antibody [2]: 8890 MFI
- TIM-3 binding (MFI) at 0.195 µg/ml antibody [2]: 8800 MFI
- TIM-3 binding (MFI) at 0.781 µg/ml antibody [2]: 4480 MFI
- TIM-3 binding (MFI) at 3.125 µg/ml antibody [2]: 184 MFI
- TIM-3 binding (MFI) at 12.5 µg/ml antibody [2]: 160 MFI
- TIM-3 binding (MFI) at 50 µg/ml antibody [2]: 157 MFI
- IC50 [3]: 0.782 µg/mL
Substance: reference anti-TIM-3 antibody 18571.18571 (humanized ABTIM3 analogue)

- Ratio Cynomolgus/Human EC50 [4]: 1
- pEC50 [5]: 10.15
- pEC50 [6]: 10.15
Substance: reference antibody analogue 18564 ABTIM3

- pKd [7]: 7.60
- pKd [8]: 9.11
Substance: Fab fragment of 18564 ABTIM3 (reference analogue)
